Here are results for 43 molecules from article PMC9352680, “A comprehensive thermodynamic model for RNA binding by the Saccharomyces cerevisiae Pumilio protein PUF4”.

Where a chain is given by its changes, count along the chain named. In names and notes the source's numbering stands.

This series concerns the target T1, PUF4 RNA-binding domain (Saccharomyces cerevisiae, UniProt P25339 537-888).
T1 sequence: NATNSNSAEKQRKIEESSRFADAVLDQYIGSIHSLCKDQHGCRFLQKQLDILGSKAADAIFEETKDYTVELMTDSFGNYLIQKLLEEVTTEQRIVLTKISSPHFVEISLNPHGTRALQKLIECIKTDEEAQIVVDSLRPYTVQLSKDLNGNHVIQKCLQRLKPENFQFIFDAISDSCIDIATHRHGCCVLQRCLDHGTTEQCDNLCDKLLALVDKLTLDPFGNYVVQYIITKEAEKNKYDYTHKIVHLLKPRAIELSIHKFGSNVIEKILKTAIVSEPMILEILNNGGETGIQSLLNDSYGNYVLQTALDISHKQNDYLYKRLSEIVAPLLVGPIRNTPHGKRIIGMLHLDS
Briefly: Mg; RNA-MaP; 20 mM Na-HEPES pH 7.4, 30 mM KOAc, 0.75 mM MgCl2, 0.1% Tween-20, 5% glycerol, 0.1 mg/mL BSA, 2 mM DTT; 25 C; 0.0125-409.6 nM protein. Particulars: tags: N-His6-TEV cleaved; C-SNAP kept, Cy3B-labelled; label: tethered on chip by stalled RNA polymerase.

With UCUCUUGUUGUAUAUAUUUCUCUU (ssRNA) [Id_ii_S1_P3E.2_K3.1_C3.2_[C-2G]_H3.1_A3.1_F3.1_T3.2_[A10T]], the Kd (commonly the equilibrium constant for the complex coming apart) came to 8 nM.

B1: Id_i_S4_P3E.4_K3.3_C3.2_[C-2A]_[T-1C]_H3.3_A3.1_F3.1_T3.2 (ssRNA)
RNA: UUUGACAACUGAUCGUUCUUUCUACACACUAUAUAUUCUUUCUCGAUCAGUUGUCUUU
As to B1, the Kd amounted to 295 nM.
The result for UCUCUUGUUGUAUAUAAUUCUCUU (ssRNA) [Id_ii_S1_P3E.2_K3.1_C3.2_[C-2G]_H3.1_A3.1_F3.1_T3.2_[T9A]_[A10T]] reads 9.55 nM; that for UCUCUUUGUGUAUAUAAUUCUCUU (ssRNA) [Id_ii_S1_P3E.2_K3.1_C3.2_[C-2T]_[T-1G]_H3.1_A3.1_F3.1_T3.2_[T9A]_[A10T]], 9.46 nM; that for UCUCUUGGUGUAUAUAUUUCUCUU (ssRNA) [Id_ii_S1_P3E.2_K3.1_C3.2_[C-2G]_[T-1G]_H3.1_A3.1_F3.1_T3.2_[A10T]], 15.2 nM.
Under UCUCUUGGUGUAUAUAUGUCUCUU (ssRNA) [Id_ii_S1_P3E.2_K3.1_C3.2_[C-2G]_[T-1G]_H3.1_A3.1_F3.1_T3.2_[A10G]] stands 16.4 nM; under UCUCUUAGUGUAUUAUCUCUU (ssRNA) [Ib_S1_P4E.1_K4.1_C4.1_H4.1_[T1A]_[A4G]_A4.1_F4.1_T4.1], 64 nM.
Under UCUCUUUGUGUAUAUAGUUCUCUU (ssRNA) [Id_ii_S1_P3E.2_K3.1_C3.2_[C-2T]_[T-1G]_H3.1_A3.1_F3.1_T3.2_[T9G]_[A10T]] stands 6.29 nM.
For UCUCUUAGUUUAUUAUCUCUU (ssRNA) [Ib_S1_P4E.1_K4.1_C4.1_H4.1_[T1A]_[A4T]_A4.1_F4.1_T4.1], the Kd was greater than 2300 nM.
Under UCUCUUGCUGUAUAUAUGUCUCUU (ssRNA) [Id_ii_S1_P3E.2_K3.1_C3.2_[C-2G]_[T-1C]_H3.1_A3.1_F3.1_T3.2_[A10G]] stands 12.4 nM; under UCUCUUGGUGUAUAUAAUUCUCUU (ssRNA) [Id_ii_S1_P3E.2_K3.1_C3.2_[C-2G]_[T-1G]_H3.1_A3.1_F3.1_T3.2_[T9A]_[A10T]], 16.3 nM.
Under UCUCUUGGUGUAUAUAGUUCUCUU (ssRNA) [Id_ii_S1_P3E.2_K3.1_C3.2_[C-2G]_[T-1G]_H3.1_A3.1_F3.1_T3.2_[T9G]_[A10T]] stands 6.96 nM; under UCUCUUGCUGUAUAUAUUUCUCUU (ssRNA) [Id_ii_S1_P3E.2_K3.1_C3.2_[C-2G]_[T-1C]_H3.1_A3.1_F3.1_T3.2_[A10T]], 12.9 nM.
UCUCUUGCUGUAUAUAAAUCUCUU (ssRNA) [Id_ii_S1_P3E.2_K3.1_C3.2_[C-2G]_[T-1C]_H3.1_A3.1_F3.1_T3.2_[T9A]] registered a Kd of 15.5 nM. The Kd values of the last two molecules are within 1.5-fold of each other.
Regarding UCUCUUGCUGUAUAUAACUCUCUU (ssRNA) [Id_ii_S1_P3E.2_K3.1_C3.2_[C-2G]_[T-1C]_H3.1_A3.1_F3.1_T3.2_[T9A]_[A10C]], binding was characterised by a dissociation constant (Kd) of 18.8 nM. The Kd values of the last two molecules are within 1.5-fold of each other.
With UCUCUUGUUGUAUAUAUGUCUCUU (ssRNA) [Id_ii_S1_P3E.2_K3.1_C3.2_[C-2G]_H3.1_A3.1_F3.1_T3.2_[A10G]], the Kd was found to be 8.99 nM.
Under UCUCUUGCUGUAUAUACUUCUCUU (ssRNA) [Id_ii_S1_P3E.2_K3.1_C3.2_[C-2G]_[T-1C]_H3.1_A3.1_F3.1_T3.2_[T9C]_[A10T]] stands 31.8 nM; under UCUCUUGUUGUAUAUAUAUCUCUU (ssRNA) [Id_ii_S1_P3E.2_K3.1_C3.2_[C-2G]_H3.1_A3.1_F3.1_T3.2], 5.16 nM.

B2: Id_i_S4_P3E.5_K3.1_C3.3_[T-3C]_[C-2G]_[T-1C]_H3.1_A3.1_F3.1_T3.2 (ssRNA)
RNA: UUUGACAACUGAUCGUUCUUUCUCGCUGUAUAUAUAUUCUUUCUCGAUCAGUUGUCUUU
As to B2, the affinity, expressed as Kd, was 1.51 nM. Against the preceding molecule, the Kd is about 3.4-fold lower.

B3: Id_i_S4_P3E.7_K3.3_C3.3_[T-3A]_[C-2T]_[T-1A]_H3.3_A3.1_F3.1_T3.2 (ssRNA)
RNA: B2 RNA with C24A, G25U, C26A, U27A, G28C, U29A, A30C
As for B3, binding was put at a Kd of 571 nM. Against the preceding molecule, the Kd is about 380-fold higher.

B4: Id_i_S4_P3E.7_K3.3_C3.3_[T-3C]_[C-2T]_[T-1G]_H3.3_A3.1_F3.1_T3.2 (ssRNA)
RNA: B2 RNA with G25U, C26G, U27A, G28C, U29A, A30C
Molecule B4 gave a Kd of 424 nM. This Kd and that of the molecule before are within 1.5-fold of each other.

B5: Id_i_S4_P3E.7_K3.3_C3.3_[T-3A]_[C-2A]_[T-1A]_H3.3_A3.1_F3.1_T3.2 (ssRNA)
RNA: B2 RNA with C24A, G25A, C26A, U27A, G28C, U29A, A30C
Molecule B5 gave a Kd of 451 nM.

B6: Id_i_S4_P3E.7_K3.3_C3.3_[T-3C]_[C-2A]_[T-1A]_H3.3_A3.1_F3.1_T3.2 (ssRNA)
RNA: B2 RNA with G25A, C26A, U27A, G28C, U29A, A30C
In turn, B6 displayed a Kd of 110 nM. This Kd is about 4.1-fold lower than that of the molecule before.

B7: Id_i_S4_P3E.5_K3.1_C3.3_[T-3A]_[C-2T]_[T-1C]_H3.1_A3.1_F3.1_T3.2 (ssRNA)
RNA: B2 RNA with C24A, G25U
Molecule B7 returned a Kd of 1.98 nM.

B8: Id_i_S4_P3E.6_K3.2_C3.3_[T-3C]_[C-2A]_[T-1C]_H3.2_A3.1_F3.1_T3.2 (ssRNA)
RNA: B2 RNA with G25A, G28A
On to B8, for which the affinity, expressed as Kd, was 56.5 nM.

B9: Id_i_S4_P3E.5_K3.1_C3.3_[T-3C]_[C-2T]_[T-1G]_H3.1_A3.1_F3.1_T3.2 (ssRNA)
RNA: B2 RNA with G25U, C26G
Take B9: binding was characterised by a dissociation constant (Kd) of 1.5 nM.

B10: Id_i_S4_P3E.6_K3.2_C3.3_[T-3C]_[C-2T]_[T-1G]_H3.2_A3.1_F3.1_T3.2 (ssRNA)
RNA: B2 RNA with G25U, C26G, G28A
Take B10: the dissociation constant Kd amounted to 1.92 nM.

B11: Id_i_S4_P3E.7_K3.3_C3.3_[T-3A]_[C-2T]_[T-1C]_H3.3_A3.1_F3.1_T3.2 (ssRNA)
RNA: B2 RNA with C24A, G25U, U27A, G28C, U29A, A30C
B11: binding was characterised by a dissociation constant (Kd) of 346 nM.

B12: Id_i_S4_P3E.7_K3.3_C3.3_[T-3C]_[C-2T]_[T-1A]_H3.3_A3.1_F3.1_T3.2 (ssRNA)
RNA: B2 RNA with G25U, C26A, U27A, G28C, U29A, A30C
For the molecule B12, the Kd stood at 113 nM. This Kd is about 3.1-fold lower than that of the molecule before.

B13: Id_i_S4_P3E.6_K3.2_C3.3_[T-3C]_[C-2T]_[T-1A]_H3.2_A3.1_F3.1_T3.2 (ssRNA)
RNA: B2 RNA with G25U, C26A, G28A
For B13, binding was put at a Kd of 500 nM.

B14: Id_i_S4_P3E.6_K3.2_C3.3_[T-3G]_[C-2G]_[T-1C]_H3.2_A3.1_F3.1_T3.2 (ssRNA)
RNA: B2 RNA with C24G, G28A
In turn, B14 had a Kd of 1420 nM. Compared with the last molecule, the Kd is about 2.8-fold higher.

B15: Id_i_S4_P3E.7_K3.3_C3.3_[T-3C]_[C-2A]_[T-1G]_H3.3_A3.1_F3.1_T3.2 (ssRNA)
RNA: B2 RNA with G25A, C26G, U27A, G28C, U29A, A30C
B15 came in with a dissociation constant (Kd) of 572 nM.

B16: Id_i_S4_P3E.6_K3.2_C3.3_[T-3A]_[C-2G]_[T-1C]_H3.2_A3.1_F3.1_T3.2 (ssRNA)
RNA: B2 RNA with C24A, G28A
For B16, the Kd was determined as 537 nM.
The result for UCUCUUGUUGUAUAUAGUUCUCUU (ssRNA) [Id_ii_S1_P3E.2_K3.1_C3.2_[C-2G]_H3.1_A3.1_F3.1_T3.2_[T9G]_[A10T]] reads 4.57 nM.
Take UCUCUUCGUUUAUUAUCUCUU (ssRNA) [Ib_S1_P4E.1_K4.1_C4.1_H4.1_[T1C]_[A4T]_A4.1_F4.1_T4.1]: the Kd was greater than 2300 nM.
Molecule UCUCUUGCUGUAUAUAUCUCUCUU (ssRNA) [Id_ii_S1_P3E.2_K3.1_C3.2_[C-2G]_[T-1C]_H3.1_A3.1_F3.1_T3.2_[A10C]] showed a Kd of 12.6 nM.
Under UCUCUUGCUGUAUAUACCUCUCUU (ssRNA) [Id_ii_S1_P3E.2_K3.1_C3.2_[C-2G]_[T-1C]_H3.1_A3.1_F3.1_T3.2_[T9C]_[A10C]] stands 17.3 nM; under UCUCUUCGUGUAUUAUCUCUU (ssRNA) [Ib_S1_P4E.1_K4.1_C4.1_H4.1_[T1C]_[A4G]_A4.1_F4.1_T4.1], 33.2 nM.
Under UCUCUUGUUGUAUAUAUCUCUCUU (ssRNA) [Id_ii_S1_P3E.2_K3.1_C3.2_[C-2G]_H3.1_A3.1_F3.1_T3.2_[A10C]] stands 8.36 nM; under UCUCUUGCUGUAUAUAAUUCUCUU (ssRNA) [Id_ii_S1_P3E.2_K3.1_C3.2_[C-2G]_[T-1C]_H3.1_A3.1_F3.1_T3.2_[T9A]_[A10T]], 12.4 nM.
On to UCUCUUGUUGUAUAUACCUCUCUU (ssRNA) [Id_ii_S1_P3E.2_K3.1_C3.2_[C-2G]_H3.1_A3.1_F3.1_T3.2_[T9C]_[A10C]], for which the affinity, expressed as Kd, was 20.1 nM.
For UCUCUUGUUGUAUAUAAAUCUCUU (ssRNA) [Id_ii_S1_P3E.2_K3.1_C3.2_[C-2G]_H3.1_A3.1_F3.1_T3.2_[T9A]], the Kd is 8.84 nM. This Kd lies about 2.3-fold lower than the previous one.
Under UCUCUUUGUGUAUAUACCUCUCUU (ssRNA) [Id_ii_S1_P3E.2_K3.1_C3.2_[C-2T]_[T-1G]_H3.1_A3.1_F3.1_T3.2_[T9C]_[A10C]] stands 23.4 nM.
